# Experimental data reported in the supplement of paper PMC10126150.
# ± gives the standard deviation of the averaged measurements.
# System: ATP
# Experiment: switch fluorescence ratio, 500 uM ATP over buffer (Cy3 cluster intensity, sum of 5 cycles each) (fold (ratio)); higher = stronger signal-on switching upon ATP binding; sequences stand for … in TCGTCGGCAGCGTCAGATGTGTATAAGAGACAGTTTTTTTTTTTTTTTTTTTTTTTTT…TC
# Conditions: aptamer strand: ATP DNA aptamer (quencher-CACCTGGGGGAGTATTGCGGAGGAAGG + anchor), 100 nM annealed; ATP concentration: 500 uM
# How it was run: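 Clusters carrying Cy3-labelled switching strands on a modified Illumina MiSeq flow-cell were annealed to 100 nM quencher-labelled ATP aptamer and imaged in selection buffer. They were imaged again after 15 min with 500 uM ATP at 22 °C, over five buffer/ATP cycles with NaOH stripping and re-annealing in between. For each cluster, the fluorescence ratio is the summed Cy3 intensity of the target cycles divided by that of the buffer cycles, averaged per switch-domain sequence. Clusters outside 100-1000 RFU were left out.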
# 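Note: ATP exposure 15 min at 22 °C before imaging.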
row,Sequence,switch fluorescence ratio
1,AAGGCTGCAG,0.92 ± 0.05
2,AACGTTATCT,1.04 ± 0.015
3,AGGTATCCAC,1.03 ± 0.035
4,CAGTTAGATA,1.02 ± 0.031
5,CAAATTTGGT,0.993 ± 0.032
6,AGTCTGCTCG,1 ± 0.018
7,GAGTAGGAAG,0.961 ± 0.05
8,TACGAATCT,1.03 ± 0.056
9,AACTCCCTTT,1.067 ± 0.0086
10,TTGTCGCGTA,1.01 ± 0.07
11,ATGGGGGAGT,0.9768 ± 0.0031
12,ACTGGGTAAA,1.002 ± 0.0086
13,TTGGAGTGGG,0.987 ± 0.051
14,AGGGGCATTC,1.03 ± 0.064
15,GCAGTCGCAA,1.1 ± 0.043
16,GGGCGCCATC,1.01 ± 0.016
17,GTAGTGCCAG,1.02 ± 0.042
18,ACGTGACCCA,1.35 ± 0.071
19,CTTGCGGGGA,1.0408 ± 0.00045
20,TATTGCGCTC,1.09 ± 0.065
21,CAATACTTG,1.027 ± 0.0074
22,GTTATTGGAG,0.999 ± 0.026
23,AGGCGTTGGG,1.01 ± 0.015

row,Sequence,switch fluorescence ratio
1,CGTGTATTTC,1.02 ± 0.022
2,GGGATTGGTG,0.995 ± 0.026
3,CCTACCGTGG,1.31 ± 0.11
4,TGTTAAGGGG,1.18 ± 0.21
5,CAATATTATG,1.02 ± 0.02
6,CCTATAGTAC,1.69 ± 0.05
7,TAAGCTCTGT,0.984 ± 0.021
8,CTTATCTCTT,1.02 ± 0.025
9,TGCTTATCGC,0.995 ± 0.024
10,GAGGTTTAAT,0.981 ± 0.039
11,ATGTTGTTGT,0.981 ± 0.033
12,AGGTGATACG,1.06 ± 0.054
13,TATTGGGTGG,0.9919 ± 0.0053
14,TGATTAGCAA,1.26 ± 0.3
15,TCCTGTGGGT,0.99 ± 0.036
16,CCTGTTTTTT,1.02 ± 0.022
17,GGGGGAGATA,1 ± 0.025
18,AAGGTCATAA,1.01 ± 0.053
19,AAAACACAGA,1.15 ± 0.14
20,GGGAGATAGA,0.982 ± 0.052
21,TAGAACAAAA,0.99 ± 0.015
22,GCCGAACCTC,1.28 ± 0.037
23,CGGGGTCGG,1 ± 0.014

row,Sequence,switch fluorescence ratio
1,TTTCCGGATT,1.02 ± 0.059
2,CCTTGGATTG,0.9851 ± 0.0018
3,ATTTCTCAAT,1.01 ± 0.03
4,GTGTATCGGT,0.994 ± 0.023
5,ACCCTGGCAA,1.36 ± 0.41
6,GCCCAACTGT,1 ± 0.036
7,TAAATCCGGT,0.997 ± 0.041
8,CGAGGGCTAG,1.04 ± 0.074
9,GTAGTACAAG,0.986 ± 0.026
10,AAGGGGCATT,1.01 ± 0.011
11,TTCCTGGGTT,1.002 ± 0.0097
12,GATAGGAAGG,0.964 ± 0.052
13,TCGGATAGTC,1.01 ± 0.026
14,TGAAGACTGT,0.988 ± 0.045
15,GTGTAATAAG,0.99 ± 0.031
16,CGGGGTACGG,1.01 ± 0.017
17,AGCAGTTCGG,1 ± 0.036
18,AAGATTTTAT,0.977 ± 0.019
19,GGGAAGAGAG,0.985 ± 0.021
20,ATGTCAAGGA,0.985 ± 0.042
21,GCTGAATTTG,0.989 ± 0.058
22,CCTGGGCCTT,1.01 ± 0.025
23,CCCGAATCCT,1.06 ± 0.034

row,Sequence,switch fluorescence ratio
1,TGTTTTGGAG,1 ± 0.032
2,CTACGAAGTA,1.01 ± 0.015
3,TTCATTAGCT,1 ± 0.025
4,CTAATGGAGC,0.98 ± 0.017
5,GGGTAGCAGG,1.04 ± 0.01
6,CTGGGGGTGC,1.06 ± 0.017
7,GGTTTTTACG,0.985 ± 0.061
8,ATATTGCCTA,1.003 ± 0.0074
9,CCGGTTGAGA,1 ± 0.016
10,GAAGTTTAAA,1.02 ± 0.035
11,TCGATATATG,1 ± 0.028
12,TTATTTGGGT,1 ± 0.021
13,ATTGTATAAA,1.04 ± 0.056
14,CTTAGTGTTC,0.992 ± 0.028
15,AGATGTTTGT,1.01 ± 0.038
16,AGATGTATAG,1.034 ± 0.009
17,GGGGACTGCA,1.03 ± 0.049
18,TAAGGCGTTA,0.985 ± 0.031
19,GTTAACGTGG,0.99 ± 0.019
20,ATGTTTTACG,0.988 ± 0.049
21,AATAAGAGAG,1.001 ± 0.0078
22,AAAAGCGTTG,0.999 ± 0.013
23,TAAGCGGCGG,1 ± 0.036

row,Sequence,switch fluorescence ratio
1,TGGGCTAATT,1.02 ± 0.04
2,GCGTTGTTTG,0.958 ± 0.042
3,AATGGCTGGT,0.994 ± 0.017
4,GATTCGCGGC,1.16 ± 0.02
5,CATTTGTTTT,1.02 ± 0.021
6,ATGAAAAAAA,0.976 ± 0.12
7,GGTCCCCAAT,1 ± 0.013
8,TAGTGTCTAG,0.97 ± 0.07
9,AGACAGGGCT,1.02 ± 0.042
10,TTGTTCTTAA,1.05 ± 0.11
11,ATTAAGTGTG,0.99638 ± 0.00091
12,AGGAATTTGG,0.978 ± 0.024
13,GATGAGGGTG,1.06 ± 0.015
14,GGGGAGGGAC,1.02 ± 0.053
15,GTTTCGGGGT,1.004 ± 0.0055
16,CGTTTTTCTG,0.968 ± 0.013
17,TTGGGTGAGG,0.98 ± 0.028
18,AGCTCTAAGA,1.02 ± 0.021
19,TGAGGGTTTT,0.997 ± 0.02
20,TACGGGTGTG,1.016 ± 0.003
21,AAGAGGGGGT,1 ± 0.03
22,CAAAGTTAGG,0.97 ± 0.013
23,GTGTGGGGGG,1.02 ± 0.075

row,Sequence,switch fluorescence ratio
1,TATCTTCTAT,1.035 ± 0.0096
2,GGTCATAGGG,0.958 ± 0.022
3,TGTATTTTGT,0.976 ± 0.022
4,GATTGTAATC,0.99 ± 0.0063
5,GAATGGGACG,1 ± 0.021
6,CAGGGCCCTG,0.995 ± 0.056
7,ATCGTGTGGT,0.9829 ± 0.0092
8,CGCGGTACGG,1.47 ± 0.39
9,TATATGTATC,0.9678 ± 0.0011
10,ACTTGGATGG,0.995 ± 0.028
11,GAGGCCGCTA,1.84 ± 0.043
12,GGGTCAGTTT,1.04 ± 0.054
13,GGGCACGTCG,0.9888 ± 0.0094
14,TGGGGTAGC,0.9979 ± 0.0088
15,TGGGGGATCT,1 ± 0.038
16,ATTGAAATGG,1.02 ± 0.044
17,AATAACTAGG,1 ± 0.025
18,CTATTTGACT,0.9576 ± 0.0028
19,GCCTTGTGCA,0.995 ± 0.017
20,GGTTAAAGAA,1.004 ± 0.0082
21,AGAGGAGAAT,0.993 ± 0.0021
22,CGGGCAAGGT,1.038 ± 0.01
23,TTTTACTGTT,1.12 ± 0.096

row,Sequence,switch fluorescence ratio
1,AAGACAGGAA,1.03 ± 0.05
2,AGCACTGCTG,1.01 ± 0.014
3,ATTCTTCCGC,3.88 ± 0.16
4,GCTCGAGTTG,0.9967 ± 0.0094
5,TAATGATTGA,0.985 ± 0.0078
6,ACGGGGGGCA,1.01 ± 0.048
7,CTTTGGTGTT,1.01 ± 0.017
8,GCGCCCTGTG,1.122 ± 0.0062
9,AGGGTTAGCT,0.991 ± 0.02
10,CATCAGGTTT,0.991 ± 0.0015
11,ATAGTTGTGA,0.987 ± 0.024
12,TTTGAGAGCT,0.977 ± 0.014
13,GCGTCGGGGG,1.01 ± 0.028
14,GGAAGTGTGT,0.949 ± 0.021
15,AATCGCACCA,1.11 ± 0.025
16,TGGCGTTTGG,1 ± 0.015
17,TGTTGGTATG,0.976 ± 0.038
18,TTGCGCCTTT,1.03 ± 0.0099
19,ATCGTAATGG,1.04 ± 0.038
